From article PMC9482650, “Quantitative fragmentomics allow affinity mapping of interactomes” (Nature Communications, 2022)

T1: SNTG2, Q9NY99
T1 sequence (Q9NY99 68-166, limits assumed, looked up): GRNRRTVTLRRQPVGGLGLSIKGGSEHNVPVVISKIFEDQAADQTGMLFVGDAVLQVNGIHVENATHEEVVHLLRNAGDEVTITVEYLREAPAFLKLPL

T2: HTRA4, P83105
T2 sequence (P83105 378-476, limits assumed, looked up): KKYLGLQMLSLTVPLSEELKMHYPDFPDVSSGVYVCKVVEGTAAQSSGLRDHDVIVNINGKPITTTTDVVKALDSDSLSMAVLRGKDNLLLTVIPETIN

T3: ARHGEF11, O15085
T3 sequence (O15085 42-136, limits assumed, looked up): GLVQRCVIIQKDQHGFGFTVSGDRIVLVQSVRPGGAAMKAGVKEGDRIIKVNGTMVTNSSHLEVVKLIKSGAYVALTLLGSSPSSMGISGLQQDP

T4: LIN7C, Q9NUP9
T4 sequence (Q9NUP9 88-185, limits assumed, looked up): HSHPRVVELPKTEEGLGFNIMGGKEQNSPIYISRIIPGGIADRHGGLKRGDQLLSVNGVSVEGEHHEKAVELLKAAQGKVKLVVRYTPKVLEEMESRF

T5: PDZRN3_1, Q9UPQ7
T5 sequence (Q9UPQ7 244-349, limits assumed, looked up): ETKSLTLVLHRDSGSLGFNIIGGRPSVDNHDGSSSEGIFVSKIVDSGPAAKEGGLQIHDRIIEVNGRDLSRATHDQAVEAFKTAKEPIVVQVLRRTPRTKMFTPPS

T6: SNTB1, Q13884
T6 sequence (Q13884 107-205, limits assumed, looked up): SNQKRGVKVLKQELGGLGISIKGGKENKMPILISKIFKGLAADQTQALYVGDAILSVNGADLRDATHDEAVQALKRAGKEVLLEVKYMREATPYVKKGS

T7: APBA3_1, O96018
T7 sequence (O96018 389-490, limits assumed, looked up): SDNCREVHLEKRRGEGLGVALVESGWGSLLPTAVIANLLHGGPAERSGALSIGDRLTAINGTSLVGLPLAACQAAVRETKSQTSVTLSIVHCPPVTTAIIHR

T8: PDZD2_2, O15018
T8 sequence (O15018 329-429, limits assumed, looked up): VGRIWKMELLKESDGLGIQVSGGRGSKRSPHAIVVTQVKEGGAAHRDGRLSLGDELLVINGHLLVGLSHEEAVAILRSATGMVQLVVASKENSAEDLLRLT

T9: NHERF3_4, Q5T2W1
T9 sequence (Q5T2W1 373-468, limits assumed, looked up): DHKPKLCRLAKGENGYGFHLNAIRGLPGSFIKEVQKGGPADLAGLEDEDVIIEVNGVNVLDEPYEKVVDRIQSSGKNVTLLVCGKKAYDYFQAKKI

T10: LNX2_3, Q8N448
T10 sequence (Q8N448 463-564, limits assumed, looked up): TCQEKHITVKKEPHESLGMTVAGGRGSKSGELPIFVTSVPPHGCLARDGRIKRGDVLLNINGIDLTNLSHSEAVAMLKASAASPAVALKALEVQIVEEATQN

T11: TIAM2, Q8IVF5
T11 sequence (Q8IVF5 885-986, limits assumed, looked up): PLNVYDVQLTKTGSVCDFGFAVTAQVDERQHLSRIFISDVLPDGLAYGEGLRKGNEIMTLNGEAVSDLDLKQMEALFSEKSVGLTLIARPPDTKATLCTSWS

T12: GRIP1_4, Q9Y3R0
T12 sequence (Q9Y3R0 467-571, limits assumed, looked up): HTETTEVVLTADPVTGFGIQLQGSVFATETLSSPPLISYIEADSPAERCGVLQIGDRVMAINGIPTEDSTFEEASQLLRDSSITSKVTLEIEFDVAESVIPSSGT


Legend:
Assay in all cases: holdup assay
Set-up in all cases: key: below the threshold = too weak to quantify, mostly under pKd 3.1 to 4
Details in all cases: plain residues with an end cap or a label only (N-terminal biotin on a linker: ado-ado)
[1] = target: T1, SNTG2, Q9NY99
[2] = target: LNX1_3, Q8TBB1
[3] = target: T2, HTRA4, P83105
[4] = target: T3, ARHGEF11, O15085
[5] = target: MAGI2_4, Q86UL8
[6] = target: T4, LIN7C, Q9NUP9
[7] = target: T5, PDZRN3_1, Q9UPQ7
[8] = target: T6, SNTB1, Q13884
[9] = target: DLG2_2, Q15700
[10] = target: AHNAK1, Q09666
[11] = target: IL16_4, Q14005
[12] = target: Inadl_3, Q8NI35
[13] = target: T7, APBA3_1, O96018
[14] = target: T8, PDZD2_2, O15018
[15] = target: T9, NHERF3_4, Q5T2W1
[16] = target: TJP1_3, Q07157
[17] = target: DLG1_3, Q12959
[18] = target: SNX27, Q96L92
[19] = target: T10, LNX2_3, Q8N448
[20] = target: SCRIB_2, Q14160
[21] = target: LNX1_2, Q8TBB1
[22] = target: FRMPD2_2, Q68DX3
[23] = target: LAP2, Q96RT1
[24] = target: Inadl_6, Q8NI35
[25] = target: T11, TIAM2, Q8IVF5
[26] = target: T12, GRIP1_4, Q9Y3R0

Chain of LNX1_2, Q8TBB1 (Q8TBB1 371-470): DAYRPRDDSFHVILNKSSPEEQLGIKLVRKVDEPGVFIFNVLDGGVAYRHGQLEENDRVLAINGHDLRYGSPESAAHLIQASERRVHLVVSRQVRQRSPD
Chain of LNX1_3, Q8TBB1 (Q8TBB1 500-596): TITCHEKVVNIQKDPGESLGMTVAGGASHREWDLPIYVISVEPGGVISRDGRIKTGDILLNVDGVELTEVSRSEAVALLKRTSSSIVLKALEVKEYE
Chain of SCRIB_2, Q14160 (Q14160 857-960): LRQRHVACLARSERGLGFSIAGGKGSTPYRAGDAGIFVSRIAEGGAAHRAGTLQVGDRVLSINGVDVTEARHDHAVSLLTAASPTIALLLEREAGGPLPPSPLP
Chain of DLG1_3, Q12959 (Q12959 457-571): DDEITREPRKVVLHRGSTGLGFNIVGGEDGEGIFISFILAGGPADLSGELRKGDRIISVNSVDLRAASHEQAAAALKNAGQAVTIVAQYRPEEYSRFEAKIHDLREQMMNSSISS
Chain of DLG2_2, Q15700 (Q15700 189-283): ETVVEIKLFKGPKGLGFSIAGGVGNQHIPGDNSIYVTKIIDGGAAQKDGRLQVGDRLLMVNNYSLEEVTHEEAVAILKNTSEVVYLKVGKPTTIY
Chain of FRMPD2_2, Q68DX3 (Q68DX3 944-1038): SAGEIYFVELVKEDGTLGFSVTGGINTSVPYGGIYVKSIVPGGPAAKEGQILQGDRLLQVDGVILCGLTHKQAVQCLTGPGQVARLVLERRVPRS
Chain of MAGI2_4, Q86UL8 (Q86UL8 772-865): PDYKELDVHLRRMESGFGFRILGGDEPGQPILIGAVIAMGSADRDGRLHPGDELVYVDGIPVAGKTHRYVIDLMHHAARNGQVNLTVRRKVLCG
Chain of LAP2, Q96RT1 (Q96RT1 other isoform, or with tags, fused parts or gaps): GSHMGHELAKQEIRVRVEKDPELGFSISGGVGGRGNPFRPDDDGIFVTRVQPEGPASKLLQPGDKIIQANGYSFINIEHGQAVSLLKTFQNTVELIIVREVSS
Chain of TJP1_3, Q07157 (Q07157 416-512): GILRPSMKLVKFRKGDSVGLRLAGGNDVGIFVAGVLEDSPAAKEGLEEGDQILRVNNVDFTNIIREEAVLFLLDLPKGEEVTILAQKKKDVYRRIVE
Chain of Inadl_3, Q8NI35 (Q8NI35 359-469): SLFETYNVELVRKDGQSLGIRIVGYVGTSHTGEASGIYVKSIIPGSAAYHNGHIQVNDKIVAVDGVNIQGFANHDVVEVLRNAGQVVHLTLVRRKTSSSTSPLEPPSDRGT
Chain of AHNAK1, Q09666 (Q09666 4-100): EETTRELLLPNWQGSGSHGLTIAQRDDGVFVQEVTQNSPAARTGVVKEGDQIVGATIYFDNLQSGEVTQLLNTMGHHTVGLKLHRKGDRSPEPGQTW
Chain of IL16_4, Q14005 (Q14005 1229-1329): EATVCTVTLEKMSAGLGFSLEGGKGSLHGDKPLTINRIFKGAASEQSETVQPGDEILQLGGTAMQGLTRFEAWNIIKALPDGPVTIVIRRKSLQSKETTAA
Chain of Inadl_6, Q8NI35 (Q8NI35 1058-1167): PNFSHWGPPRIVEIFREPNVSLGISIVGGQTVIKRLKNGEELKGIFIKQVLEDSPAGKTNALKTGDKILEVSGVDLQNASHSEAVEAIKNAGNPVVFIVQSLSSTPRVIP

Binder	pKd [1]	pKd [2]	pKd [3]	pKd [4]	pKd [5]	pKd [6]	pKd [7]	pKd [8]	pKd [9]	pKd [10]	pKd [11]	pKd [12]	pKd [13]	pKd [14]	pKd [15]	pKd [16]	pKd [17]	pKd [18]	pKd [19]	pKd [20]	further results
HLSTRQGTCV [ATRNL1, Q5VV63]	3.67	below the threshold	4.33	4.02	4.97	below the threshold	3.97	3.99	4.21	below the threshold	below the threshold	below the threshold	below the threshold	4.99	below the threshold	below the threshold	3.58	4.05	below the threshold	4.02	pKd [21]: 3.71; pKd [22]: below the threshold; pKd [23]: 3.94; pKd [24]: below the threshold; pKd [25]: below the threshold; pKd [26]: below the threshold
SSSVNVSSNL [CXCR1, P25024]	below the threshold	below the threshold	3.89	3.75	below the threshold	below the threshold	below the threshold	below the threshold	below the threshold	below the threshold	below the threshold	below the threshold	below the threshold	3.69	below the threshold	below the threshold	below the threshold	3.68	below the threshold	below the threshold	pKd [21]: below the threshold; pKd [22]: below the threshold; pKd [23]: below the threshold; pKd [24]: below the threshold; pKd [25]: below the threshold; pKd [26]: below the threshold
NNMAFETTHF [SLC5A12, Q1EHB4]	below the threshold	below the threshold	below the threshold	3.63	below the threshold	below the threshold	below the threshold	below the threshold	below the threshold	below the threshold	below the threshold	below the threshold	below the threshold	below the threshold	4.57	below the threshold	below the threshold	5.62	below the threshold	below the threshold	pKd [21]: below the threshold; pKd [22]: below the threshold; pKd [23]: below the threshold; pKd [24]: below the threshold; pKd [25]: below the threshold; pKd [26]: below the threshold
LLQEEWETVM [PTH1R, Q03431]	3.95	below the threshold	below the threshold	3.81	below the threshold	below the threshold	3.83	4.24	below the threshold	below the threshold	3.93	4.7	below the threshold	below the threshold	4.64	below the threshold	below the threshold	5.65	below the threshold	below the threshold	pKd [21]: below the threshold; pKd [22]: below the threshold; pKd [23]: below the threshold; pKd [24]: 4.12; pKd [25]: below the threshold; pKd [26]: below the threshold
